Earlier results on one substance are cited in paper PMC7468149.

One data set has as its target VEGFR2 (Homo sapiens) (UniProt P35968). Kind of data set: SPR. (In general: SPR reads the build-up and loss of mass on a sensor chip optically.)
In a further data set the target is VEGFR1 (Homo sapiens) (UniProt P17948). Kind of data set: SPR.
UniProt P17948, sequence (P17948 27-1338): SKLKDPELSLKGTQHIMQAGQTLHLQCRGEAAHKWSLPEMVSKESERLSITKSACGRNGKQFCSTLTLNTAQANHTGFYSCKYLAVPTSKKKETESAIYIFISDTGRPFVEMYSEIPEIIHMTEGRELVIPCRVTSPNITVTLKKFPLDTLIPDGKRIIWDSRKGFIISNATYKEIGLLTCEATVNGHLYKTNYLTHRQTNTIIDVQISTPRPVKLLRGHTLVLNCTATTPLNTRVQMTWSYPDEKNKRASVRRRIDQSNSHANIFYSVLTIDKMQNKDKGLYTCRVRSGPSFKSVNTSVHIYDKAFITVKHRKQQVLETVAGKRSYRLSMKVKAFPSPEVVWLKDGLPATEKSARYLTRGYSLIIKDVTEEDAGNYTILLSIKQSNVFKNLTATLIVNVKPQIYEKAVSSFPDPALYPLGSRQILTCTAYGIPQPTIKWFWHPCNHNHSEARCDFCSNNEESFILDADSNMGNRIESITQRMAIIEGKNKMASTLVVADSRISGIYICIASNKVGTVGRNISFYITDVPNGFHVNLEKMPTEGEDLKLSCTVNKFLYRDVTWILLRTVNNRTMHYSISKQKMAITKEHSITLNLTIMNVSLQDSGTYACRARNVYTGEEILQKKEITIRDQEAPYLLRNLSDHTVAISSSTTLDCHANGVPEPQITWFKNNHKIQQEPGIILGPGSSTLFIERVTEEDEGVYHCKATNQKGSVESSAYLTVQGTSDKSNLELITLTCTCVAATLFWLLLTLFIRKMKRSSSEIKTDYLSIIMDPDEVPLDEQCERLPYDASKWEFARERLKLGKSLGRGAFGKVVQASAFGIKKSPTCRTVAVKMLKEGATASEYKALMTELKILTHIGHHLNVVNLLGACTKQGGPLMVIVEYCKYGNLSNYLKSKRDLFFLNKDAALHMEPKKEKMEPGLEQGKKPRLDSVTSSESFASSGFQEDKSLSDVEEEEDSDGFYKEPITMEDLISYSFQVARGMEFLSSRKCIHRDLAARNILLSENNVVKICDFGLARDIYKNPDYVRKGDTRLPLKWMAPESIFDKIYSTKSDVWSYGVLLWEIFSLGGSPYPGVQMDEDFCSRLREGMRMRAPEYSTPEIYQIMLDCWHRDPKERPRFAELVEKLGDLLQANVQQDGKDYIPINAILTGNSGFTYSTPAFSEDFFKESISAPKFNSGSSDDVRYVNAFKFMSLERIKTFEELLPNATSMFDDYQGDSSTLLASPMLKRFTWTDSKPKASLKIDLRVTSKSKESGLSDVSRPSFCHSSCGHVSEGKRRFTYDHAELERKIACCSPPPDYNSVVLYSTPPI

UniProt P35968, sequence (P35968 20-1356): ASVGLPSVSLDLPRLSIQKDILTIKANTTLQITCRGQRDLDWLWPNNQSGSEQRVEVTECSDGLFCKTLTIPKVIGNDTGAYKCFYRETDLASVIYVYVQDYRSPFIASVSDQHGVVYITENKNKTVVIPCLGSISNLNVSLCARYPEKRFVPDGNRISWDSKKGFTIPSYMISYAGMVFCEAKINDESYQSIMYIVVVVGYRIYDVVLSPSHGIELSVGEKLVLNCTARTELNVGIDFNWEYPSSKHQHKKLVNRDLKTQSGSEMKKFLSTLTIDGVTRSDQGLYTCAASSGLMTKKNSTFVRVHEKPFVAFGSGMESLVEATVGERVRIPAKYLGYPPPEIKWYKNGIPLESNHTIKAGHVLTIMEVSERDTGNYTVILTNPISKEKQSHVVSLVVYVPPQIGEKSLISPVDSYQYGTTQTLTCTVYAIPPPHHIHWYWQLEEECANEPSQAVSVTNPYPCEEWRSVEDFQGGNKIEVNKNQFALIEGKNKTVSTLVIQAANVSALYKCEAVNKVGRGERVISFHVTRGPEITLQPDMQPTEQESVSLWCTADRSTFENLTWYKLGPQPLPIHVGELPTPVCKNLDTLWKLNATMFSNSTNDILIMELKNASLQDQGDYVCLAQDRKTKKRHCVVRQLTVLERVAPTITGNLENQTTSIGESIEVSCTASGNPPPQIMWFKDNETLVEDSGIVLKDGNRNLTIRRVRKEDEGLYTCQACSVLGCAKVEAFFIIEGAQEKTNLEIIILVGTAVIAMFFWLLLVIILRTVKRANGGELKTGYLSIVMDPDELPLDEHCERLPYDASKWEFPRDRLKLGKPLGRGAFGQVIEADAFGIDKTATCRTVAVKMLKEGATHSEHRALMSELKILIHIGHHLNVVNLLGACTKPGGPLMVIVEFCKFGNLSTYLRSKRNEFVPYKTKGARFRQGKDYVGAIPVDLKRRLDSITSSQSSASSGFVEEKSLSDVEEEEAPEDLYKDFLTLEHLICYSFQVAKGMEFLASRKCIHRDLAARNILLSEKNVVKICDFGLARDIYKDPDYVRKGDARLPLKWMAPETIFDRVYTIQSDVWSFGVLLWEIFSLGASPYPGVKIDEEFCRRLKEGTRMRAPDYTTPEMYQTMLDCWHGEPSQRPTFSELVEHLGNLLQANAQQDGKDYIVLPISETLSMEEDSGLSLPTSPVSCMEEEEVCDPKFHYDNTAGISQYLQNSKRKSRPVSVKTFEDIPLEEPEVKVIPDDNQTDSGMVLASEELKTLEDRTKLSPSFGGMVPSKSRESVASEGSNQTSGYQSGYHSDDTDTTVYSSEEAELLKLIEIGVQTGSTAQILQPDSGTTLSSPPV

As for VEGF-A165a (from UniProt P15692), the Kd with VEGFR2 (Homo sapiens) was 0.052 nM; in the data set with VEGFR1 (Homo sapiens), 0.0075 nM.

By Kd is commonly meant the equilibrium constant for the complex coming apart.
